This series addresses SlTAGL1-His (Solanum lycopersicum, UniProt E9JUM2 1-269). Kind of series: EMSA; not given; Beyotime EMSA/Gel-Shift kit and Thermo LightShift Chemiluminescent EMSA kit. As to conditions: protein: recombinant; tags: His (pET28a); chain copies: 2; label: biotin 3'; blunt. (In general: Mobility shift assays separate free from complexed probe on a gel.)

SlTAGL1-His, sequence (E9JUM2 entry or part of it): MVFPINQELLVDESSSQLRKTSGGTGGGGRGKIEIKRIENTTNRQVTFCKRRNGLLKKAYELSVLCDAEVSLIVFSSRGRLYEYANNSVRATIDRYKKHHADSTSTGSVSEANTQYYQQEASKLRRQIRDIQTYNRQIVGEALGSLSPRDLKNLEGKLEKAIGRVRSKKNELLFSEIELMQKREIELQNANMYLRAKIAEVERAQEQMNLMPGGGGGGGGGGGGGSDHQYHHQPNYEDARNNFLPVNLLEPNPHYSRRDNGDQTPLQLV

B1: SlPSY1 promoter probe (dsDNA)
DNA 1: GAATTGAGCACTTGGCTTTTGTATATAGCTTCTATGTGTACCAAAATT
DNA 2: AATTTTGGTACACATAGAAGCTATATACAAAAGCCAAGTGCTCAATTC
For B1, the binding result is recorded as “binds”.

The record behind these values is PMC12581942, “EIN3-binding F-box protein SlEBF3 modulates resistance against Botrytis cinerea and carotenoid biosynthesis by degradation of BBX20 in tomato”.
